± gives the uncertainty stated by the source.
Assay: self-splicing fitness, log relative to wild type (ln ratio); higher = more splicing; Tetrahymena group I intron in knt gene, E. coli kanamycin selection, DiMSum; sequences stand for … in CUCUCU…GGAGGGAAAAGUUAUCAGGCAUGCACCUGGUAGCUAGUCUUUAAACCAAUAGAUUGCAUCGGUUUAAAAGGCAAGACCGUCAAAUUGCGGGAAAGGGGUCAACAGCCGUUCAGUACCAAGUCUCAGGGGAAACUUUGAGAUGGCCUUGCAAAGGGUAUGGUAAUAAGCUGACGGACAUGGUCCUAACCACGCAGCCAAGUCCUAAGUCAACAGAUCUUCUGUUGAUAUGGAUGCAGUUCACAGACUAAAUGUCGGUCGGGGAAGAUGUAUUCUUCUCAUAAGAUAUAGUCGGACCUCUCCUUAAUGGGAGCUAGCGGAUGAAGUGAUGCAACACUGGAGCCGCUGGGAACUAAUUUGUAUGCGAAAGUAUAUUGAUUAGUUUUGGAGUACUCGUGGUCG
Summary of the method: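 A randomised library covering all eight P1ex-region intron nucleotides was built with the intron in the knt kanamycin-resistance gene on pET-22b(+) and held in E. coli BL21(DE3). Cells were grown overnight at 37°C or 30°C on LB agar, with or without 25 μg/mL kanamycin, plus 100 μg/mL carbenicillin, 50 μM IPTG and 0.2% rhamnose, and pooled colonies were amplicon-sequenced on an Illumina HiSeq 2500. DiMSum fitness is the error-weighted combination of wild-type-normalised replicate fold changes, kanamycin versus none.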

Sequence | self-splicing fitness (ln) (30 °C) | self-splicing fitness (ln) (37 °C)
GACAAGCAAUAUUACGGUAU | -1.29 ± 0.073 | -1.17 ± 0.087
GACAAGCAAUAUUACGGUCA | -0.777 ± 0.13 | -0.735 ± 0.12
GACAAGCAAUAUUACGUACC | -1.71 ± 0.13 | -1.11 ± 0.12
GACAAGCAAUAUUACGUAGG | -3.07 ± 0.11 | -2.22 ± 0.13
GACAAGCAAUAUUACGUCAU | -3.05 ± 0.15 | -2.62 ± 0.16
GACAAGCAAUAUUACGUGAU | -1.77 ± 0.071 | -1.17 ± 0.09
GACAAGCAAUAUUACGUUUU | -2.69 ± 0.076 | -1.97 ± 0.1
GACCAGCAAUAUUACGAACC | -0.191 ± 0.09 | 0.0652 ± 0.092
GACCAGCAAUAUUACGAACG | -0.447 ± 0.075 | -0.466 ± 0.11
GACCAGCAAUAUUACGAACU | 0.271 ± 0.062 | -0.0101 ± 0.082
GACCAGCAAUAUUACGAAGU | -1.45 ± 0.09 | -0.269 ± 0.1
GACCAGCAAUAUUACGAGCC | -0.222 ± 0.093 | 0.0644 ± 0.14
GACCAGCAAUAUUACGAUGC | -0.38 ± 0.059 | -0.185 ± 0.072
GACCAGCAAUAUUACGAUUU | 0.0538 ± 0.046 | 0.446 ± 0.065
GACCAGCAAUAUUACGCGAA | -0.483 ± 0.059 | -0.138 ± 0.083
GACCAGCAAUAUUACGCGCG | -0.501 ± 0.061 | 0.0713 ± 0.078
GACCAGCAAUAUUACGCGCU | -1.68 ± 0.12 | -0.412 ± 0.12
GACCAGCAAUAUUACGCGGC | -3 ± 0.25 | -2.3 ± 0.29
GACCAGCAAUAUUACGCGGU | -4.81 ± 0.39 | -3.27 ± 0.27
GACCAGCAAUAUUACGCGUU | -3.49 ± 0.12 | -2.54 ± 0.14
GACCAGCAAUAUUACGCUAC | – | -2.47 ± 0.3
GACCAGCAAUAUUACGGAAA | -0.538 ± 0.086 | 0.437 ± 0.096
GACCAGCAAUAUUACGGACA | -0.345 ± 0.078 | -0.496 ± 0.081
GACCAGCAAUAUUACGGAUC | -1.45 ± 0.095 | -0.489 ± 0.12
GACCAGCAAUAUUACGGAUU | -0.723 ± 0.049 | -0.029 ± 0.062
GACCAGCAAUAUUACGGGGA | -0.82 ± 0.074 | -0.839 ± 0.087

Sequence | self-splicing fitness (ln) (30 °C) | self-splicing fitness (ln) (37 °C)
GACCAGCAAUAUUACGUAAU | -0.385 ± 0.058 | -0.075 ± 0.07
GACCAGCAAUAUUACGUACC | -0.415 ± 0.08 | -0.106 ± 0.098
GACCAGCAAUAUUACGUCAC | -4.24 ± 0.27 | -2.54 ± 0.2
GACCAGCAAUAUUACGUUCU | -0.569 ± 0.078 | -0.975 ± 0.12
GACGAGCAAUAUUACGAGCA | -3.31 ± 0.35 | -2.65 ± 0.3
GACGAGCAAUAUUACGAUGA | -4.01 ± 0.39 | -2.14 ± 0.2
GACGAGCAAUAUUACGCAUG | -3.07 ± 0.25 | -1.61 ± 0.19
GACGAGCAAUAUUACGCCAU | -2.23 ± 0.49 | –
GACGAGCAAUAUUACGCGUC | -2.57 ± 0.5 | –
GACGAGCAAUAUUACGCUAC | -2.62 ± 0.18 | -2.54 ± 0.26
GACGAGCAAUAUUACGCUCU | -3.92 ± 0.27 | -1.64 ± 0.32
GACGAGCAAUAUUACGCUUG | -4 ± 0.26 | -1.27 ± 0.16
GACGAGCAAUAUUACGGACG | -1.64 ± 0.21 | -2.33 ± 0.31
GACGAGCAAUAUUACGGAGG | -3.68 ± 0.26 | -2.97 ± 0.35
GACGAGCAAUAUUACGGAGU | -3.71 ± 0.35 | -2.49 ± 0.24
GACGAGCAAUAUUACGGCAC | -2.53 ± 0.18 | -1.62 ± 0.16
GACGAGCAAUAUUACGGGAC | -3.94 ± 0.31 | -2.23 ± 0.46
GACGAGCAAUAUUACGGGCG | -3.8 ± 0.27 | -1.08 ± 0.17
GACGAGCAAUAUUACGGGUU | -3.77 ± 0.18 | -2.75 ± 0.21
GACGAGCAAUAUUACGUACG | -2.63 ± 0.29 | -2.17 ± 0.33
GACGAGCAAUAUUACGUGGC | -0.192 ± 0.41 | -1.57 ± 0.22
GACGAGCAAUAUUACGUUAC | – | -0.804 ± 0.25
GACGAGCAAUAUUACGUUGA | -2.36 ± 0.22 | -1.5 ± 0.17
GACGAGCAAUAUUACGUUGC | -4.31 ± 0.3 | -2.48 ± 0.24
GACGAGCAAUAUUACGUUUG | -3.1 ± 0.22 | -1.94 ± 0.26
GACUAGCAAUAUUACGAACC | -1.64 ± 0.17 | -0.0491 ± 0.19

Sequence | self-splicing fitness (ln) (30 °C) | self-splicing fitness (ln) (37 °C)
GACUAGCAAUAUUACGAGUA | -0.991 ± 0.067 | -0.253 ± 0.069
GACUAGCAAUAUUACGAUCC | -2.21 ± 0.18 | -1.57 ± 0.2
GACUAGCAAUAUUACGAUGU | -2.24 ± 0.15 | -1.53 ± 0.17
GACUAGCAAUAUUACGAUUA | -0.841 ± 0.069 | -0.413 ± 0.082
GACUAGCAAUAUUACGCCCC | -0.792 ± 0.23 | -0.904 ± 0.27
GACUAGCAAUAUUACGCGAC | -1.59 ± 0.28 | -0.817 ± 0.27
GACUAGCAAUAUUACGCGCG | 0.097 ± 0.11 | -0.349 ± 0.11
GACUAGCAAUAUUACGCGCU | -0.916 ± 0.095 | -0.878 ± 0.12
GACUAGCAAUAUUACGGAGA | -3.49 ± 0.23 | -2.04 ± 0.19
GACUAGCAAUAUUACGGAGU | -4.2 ± 0.25 | -2.87 ± 0.21
GACUAGCAAUAUUACGGUGU | -1.84 ± 0.098 | -0.76 ± 0.1
GACUAGCAAUAUUACGUAAU | -1.31 ± 0.077 | -0.482 ± 0.092
GACUAGCAAUAUUACGUAGG | -1.95 ± 0.091 | -1.03 ± 0.11
GACUAGCAAUAUUACGUAUU | -1.11 ± 0.072 | -0.646 ± 0.079
GACUAGCAAUAUUACGUCGG | -3.55 ± 0.21 | -3.32 ± 0.24
GACUAGCAAUAUUACGUCUC | -1.46 ± 0.16 | -0.484 ± 0.16
GAGAAGCAAUAUUACGAAAU | -3.17 ± 0.23 | -1.63 ± 0.19
GAGAAGCAAUAUUACGAACG | -0.734 ± 0.12 | -0.343 ± 0.17
GAGAAGCAAUAUUACGACAA | -0.787 ± 0.1 | -0.365 ± 0.12
GAGAAGCAAUAUUACGAGUC | -2.11 ± 0.11 | -1.78 ± 0.2
GAGAAGCAAUAUUACGAUAC | -1.73 ± 0.13 | -0.221 ± 0.18
GAGAAGCAAUAUUACGCAUG | -1.99 ± 0.11 | -1.04 ± 0.14
GAGAAGCAAUAUUACGCGAC | -2.78 ± 0.17 | -1.38 ± 0.15
GAGAAGCAAUAUUACGCUAG | -1.66 ± 0.12 | -0.805 ± 0.15
GAGAAGCAAUAUUACGCUGA | -1.49 ± 0.17 | -1.29 ± 0.15

— the supplement of paper PMC7877785
